# Reference: IntAct's records for PubMed 9520446
# B1: Inhibitor of nuclear factor kappa-B kinase subunit alpha (Homo sapiens), O15111 (parent)
# chain: MERPPGLRPGAGGPWEMRERLGTGGFGNVCLYQHRELDLKIAIKSCRLELSTKNRERWCHEIQIMKKLNHANVVKACDVPEELNILIHDVPLLAMEYCSGGDLRKLLNKPENCCGLKESQILSLLSDIGSGIRYLHENKIIHRDLKPENIVLQDVGGKIIHKIIDLGYAKDVDQGSLCTSFVGTLQYLAPELFENKPYTATVDYWSFGTMVFECIAGYRPFLHHLQPFTWHEKIKKKDPKCIFACEEMSGEVRFSSHLPQPNSLCSLVVEPMENWLQLMLNWDPQQRGGPVDLTLKQPRCFVLMDHILNLKIVHILNMTSAKIISFLLPPDESLHSLQSRIERETGINTGSQELLSETGISLDPRKPASQCVLDGVRGCDSYMVYLFDKSKTVYEGPFASRSLSDCVNYIVQDSKIQLPIIQLRKVWAEAVHYVSGLKEDYSRLFQGQRAAMLSLLRYNANLTKMKNTLISASQQLKAKLEFFHKSIQLDLERYSEQMTYGISSEKMLKAWKEMEEKAIHYAEVGVIGYLEDQIMSLHAEIMELQKSPYGRRQGDLMESLEQRAIDLYKQLKHRPSDHSYSDSTEMVKIIVHTVQSQDRVLKELFGHLSKLLGCKQKIIDLLPKVEVALSNIKEADNTVMFMQGKRQKEIWHLLKIACTQSSARSLVGSSLEGAVTPQTSAWLPPTSAEHDHSLSCVVTPQDGETSAQMIEENLNCLGHLSTIIHEANEEQGNSMMNLDWSWLTE
# B2: Inhibitor of nuclear factor kappa-B kinase subunit beta (Homo sapiens), O14920 (parent)
# chain: MSWSPSLTTQTCGAWEMKERLGTGGFGNVIRWHNQETGEQIAIKQCRQELSPRNRERWCLEIQIMRRLTHPNVVAARDVPEGMQNLAPNDLPLLAMEYCQGGDLRKYLNQFENCCGLREGAILTLLSDIASALRYLHENRIIHRDLKPENIVLQQGEQRLIHKIIDLGYAKELDQGSLCTSFVGTLQYLAPELLEQQKYTVTVDYWSFGTLAFECITGFRPFLPNWQPVQWHSKVRQKSEVDIVVSEDLNGTVKFSSSLPYPNNLNSVLAERLEKWLQLMLMWHPRQRGTDPTYGPNGCFKALDDILNLKLVHILNMVTGTIHTYPVTEDESLQSLKARIQQDTGIPEEDQELLQEAGLALIPDKPATQCISDGKLNEGHTLDMDLVFLFDNSKITYETQISPRPQPESVSCILQEPKRNLAFFQLRKVWGQVWHSIQTLKEDCNRLQQGQRAAMMNLLRNNSCLSKMKNSMASMSQQLKAKLDFFKTSIQIDLEKYSEQTEFGITSDKLLLAWREMEQAVELCGRENEVKLLVERMMALQTDIVDLQRSPMGRKQGGTLDDLEEQARELYRRLREKPRDQRTEGDSQEMVRLLLQAIQSFEKKVRVIYTQLSKTVVCKQKALELLPKVEEVVSLMNEDEKTVVRLQEKRQKELWNLLKIACSKVRGPVSGSPDSMNASRLSQPGQLMSQPSTASNSLPEPAKKSEELVAEAHNLCTLLENAIQDTVREQDQSFTALDWSWLQTEEEEHSCLEQAS
# B3: Mitogen-activated protein kinase kinase kinase 14 (Homo sapiens), Q99558 (parent)
# chain: MAVMEMACPGAPGSAVGQQKELPKAKEKTPPLGKKQSSVYKLEAVEKSPVFCGKWEILNDVITKGTAKEGSEAGPAAISIIAQAECENSQEFSPTFSERIFIAGSKQYSQSESLDQIPNNVAHATEGKMARVCWKGKRRSKARKKRKKKSSKSLAHAGVALAKPLPRTPEQESCTIPVQEDESPLGAPYVRNTPQFTKPLKEPGLGQLCFKQLGEGLRPALPRSELHKLISPLQCLNHVWKLHHPQDGGPLPLPTHPFPYSRLPHPFPFHPLQPWKPHPLESFLGKLACVDSQKPLPDPHLSKLACVDSPKPLPGPHLEPSCLSRGAHEKFSVEEYLVHALQGSVSSGQAHSLTSLAKTWAARGSRSREPSPKTEDNEGVLLTEKLKPVDYEYREEVHWATHQLRLGRGSFGEVHRMEDKQTGFQCAVKKVRLEVFRAEELMACAGLTSPRIVPLYGAVREGPWVNIFMELLEGGSLGQLVKEQGCLPEDRALYYLGQALEGLEYLHSRRILHGDVKADNVLLSSDGSHAALCDFGHAVCLQPDGLGKSLLTGDYIPGTETHMAPEVVLGRSCDAKVDVWSSCCMMLHMLNGCHPWTQFFRGPLCLKIASEPPPVREIPPSCAPLTAQAIQEGLRKEPIHRVSAAELGGKVNRALQQVGGLKSPWRGEYKEPRHPPPNQANYHQTLHAQPRELSPRAPGPRPAEETTGRAPKLQPPLPPEPPEPNKSPPLTLSKEESGMWEPLPLSSLEPAPARNPSSPERKATVPEQELQQLEIELFLNSLSQPFSLEEQEQILSCLSIDSLSLSDDSEKNPSKASQSSRDTLSSGVHSWSSQAEARSSSWNMVLARGRPTDTPSYFNGVKVQIQSLNGEHLHIREFHRVKVGDIATGISSQIPAAAFSLVTKDGQPVRYDMEVPDSGIDLQCTLAPDGSFAWSWRVKHGQLENRP
# partner: B1 chain
# B4: Mitogen-activated protein kinase kinase kinase 14 (Homo sapiens), Q99558 (parent)
# chain: B3 chain
# partner: B2 chain
# Variants of: B1
# Conditions: with ikba_human NFKBIA
row,effect of a mutation on the interaction,Variant
1,disrupting interaction,K44A
2,decreasing interaction,S176A

# Variants of: B1
# Conditions: with MAP3K14, Q99558
row,effect of a mutation on the interaction,Variant
1,decreasing interaction,S176A

# Variants of: B1
# Conditions: with ikba_human NFKBIA
# Remark: another data set of the same source
row,effect of a mutation on the interaction,Variant
1,increasing interaction,S176E

# Variants of: B2
# Conditions: with ikba_human NFKBIA
row,effect of a mutation on the interaction,Variant
1,decreasing interaction,K44A

# Variants of: B3
# Conditions: with ikka_human CHUK, O15111
row,effect of a mutation on the interaction,Variant
1,disrupting interaction,K429A;K430A

# Variants of: B4
# Conditions: with ikkb_human IKBKB
row,effect of a mutation on the interaction,Variant
1,disrupting interaction,K429A;K430A
